According to the supplement of paper PMC10065799, “High-throughput profiling of sequence recognition by tyrosine kinases and SH2 domains using bacterial peptide display” (eLife, 2023):

Experiments:
SHP2-C SH2 = experiment: SH2 binding enrichment of the phosphorylated peptide, bacterial display (enrichment ratio); higher = better substrate or ligand; peptides without Tyr show the background
c-Src SH2 = experiment: as above
Grb2 SH2 = Grb2 SH2 (UniProt P62993); experiment: as above
EPHB1 = EPHB1 (UniProt P54762); experiment: phosphorylation enrichment, bacterial display (enrichment ratio); higher = better substrate or ligand; peptides without Tyr show the background
EPHB1, sequence (P54762 whole entry, looked up): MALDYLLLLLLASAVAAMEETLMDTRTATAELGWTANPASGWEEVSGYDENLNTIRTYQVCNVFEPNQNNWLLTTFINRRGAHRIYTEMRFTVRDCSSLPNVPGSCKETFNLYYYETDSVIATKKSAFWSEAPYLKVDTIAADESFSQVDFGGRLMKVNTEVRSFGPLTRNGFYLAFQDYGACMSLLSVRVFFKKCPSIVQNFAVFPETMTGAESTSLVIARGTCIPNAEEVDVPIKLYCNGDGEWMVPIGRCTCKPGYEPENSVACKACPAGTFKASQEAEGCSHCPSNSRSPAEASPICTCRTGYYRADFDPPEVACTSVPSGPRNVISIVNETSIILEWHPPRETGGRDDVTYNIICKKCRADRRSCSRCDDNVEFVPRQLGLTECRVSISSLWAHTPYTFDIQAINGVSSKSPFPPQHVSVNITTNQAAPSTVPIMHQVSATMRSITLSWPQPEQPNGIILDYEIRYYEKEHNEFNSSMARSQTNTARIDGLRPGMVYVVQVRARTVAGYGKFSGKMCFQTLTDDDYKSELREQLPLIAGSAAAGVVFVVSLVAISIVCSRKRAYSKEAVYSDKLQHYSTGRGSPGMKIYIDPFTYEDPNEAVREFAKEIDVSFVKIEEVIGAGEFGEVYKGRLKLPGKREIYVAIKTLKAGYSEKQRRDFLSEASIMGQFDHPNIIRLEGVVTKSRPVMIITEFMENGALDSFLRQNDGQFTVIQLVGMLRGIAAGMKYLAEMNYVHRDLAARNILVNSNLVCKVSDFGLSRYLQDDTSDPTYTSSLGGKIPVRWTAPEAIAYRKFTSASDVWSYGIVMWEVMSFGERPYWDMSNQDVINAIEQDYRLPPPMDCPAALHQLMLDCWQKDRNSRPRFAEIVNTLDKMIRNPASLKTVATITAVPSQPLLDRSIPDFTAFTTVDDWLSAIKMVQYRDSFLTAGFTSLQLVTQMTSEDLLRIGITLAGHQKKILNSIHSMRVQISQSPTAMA

c-Abl (mouse) = experiment: as above
Fer (mouse) = experiment: as above
FGFR1 = FGFR1 (UniProt P11362); experiment: as above
FGFR1, sequence (P11362 whole entry, looked up): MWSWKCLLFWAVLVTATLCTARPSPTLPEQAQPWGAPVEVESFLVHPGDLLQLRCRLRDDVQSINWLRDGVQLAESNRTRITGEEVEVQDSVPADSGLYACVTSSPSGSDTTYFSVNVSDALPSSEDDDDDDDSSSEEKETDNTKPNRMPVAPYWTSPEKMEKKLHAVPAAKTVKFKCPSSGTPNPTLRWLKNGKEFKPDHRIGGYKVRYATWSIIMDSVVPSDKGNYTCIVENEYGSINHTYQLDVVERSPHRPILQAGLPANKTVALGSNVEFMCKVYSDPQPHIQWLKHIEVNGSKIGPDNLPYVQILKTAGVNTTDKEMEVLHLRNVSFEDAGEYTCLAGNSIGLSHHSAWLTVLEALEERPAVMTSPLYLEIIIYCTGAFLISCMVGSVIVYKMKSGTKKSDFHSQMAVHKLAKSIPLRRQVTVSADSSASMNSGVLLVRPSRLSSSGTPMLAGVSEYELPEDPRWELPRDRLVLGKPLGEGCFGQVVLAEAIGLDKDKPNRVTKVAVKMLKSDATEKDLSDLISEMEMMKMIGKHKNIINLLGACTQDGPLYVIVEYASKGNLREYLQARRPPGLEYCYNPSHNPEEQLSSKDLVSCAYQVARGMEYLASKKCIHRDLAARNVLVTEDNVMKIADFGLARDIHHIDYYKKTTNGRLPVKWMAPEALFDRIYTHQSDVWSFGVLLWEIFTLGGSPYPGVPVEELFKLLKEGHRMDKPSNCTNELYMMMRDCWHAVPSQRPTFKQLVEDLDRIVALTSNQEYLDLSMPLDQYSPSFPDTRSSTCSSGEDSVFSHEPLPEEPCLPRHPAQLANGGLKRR

Fyn = Fyn (UniProt P06241); experiment: as above
Fyn, sequence (P06241 whole entry, looked up): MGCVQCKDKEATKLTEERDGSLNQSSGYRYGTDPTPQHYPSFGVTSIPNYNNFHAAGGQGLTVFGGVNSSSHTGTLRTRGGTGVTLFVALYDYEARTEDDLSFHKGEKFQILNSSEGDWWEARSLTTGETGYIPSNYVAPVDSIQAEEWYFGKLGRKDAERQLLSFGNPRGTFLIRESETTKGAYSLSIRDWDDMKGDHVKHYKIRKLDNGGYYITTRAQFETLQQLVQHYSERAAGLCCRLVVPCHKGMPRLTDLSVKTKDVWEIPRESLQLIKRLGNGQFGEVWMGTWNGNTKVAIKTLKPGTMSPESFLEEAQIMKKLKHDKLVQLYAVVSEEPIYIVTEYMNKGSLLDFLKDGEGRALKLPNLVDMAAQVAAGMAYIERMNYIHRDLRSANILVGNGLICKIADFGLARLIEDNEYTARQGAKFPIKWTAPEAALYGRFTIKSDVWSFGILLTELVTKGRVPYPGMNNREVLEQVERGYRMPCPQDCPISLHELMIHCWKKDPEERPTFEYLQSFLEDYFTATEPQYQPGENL

AncSZ = experiment: as above
MERTK = MERTK (UniProt Q12866); experiment: as above
Fes = Fes (UniProt P07332); experiment: as above
Fes, sequence (P07332 whole entry, looked up): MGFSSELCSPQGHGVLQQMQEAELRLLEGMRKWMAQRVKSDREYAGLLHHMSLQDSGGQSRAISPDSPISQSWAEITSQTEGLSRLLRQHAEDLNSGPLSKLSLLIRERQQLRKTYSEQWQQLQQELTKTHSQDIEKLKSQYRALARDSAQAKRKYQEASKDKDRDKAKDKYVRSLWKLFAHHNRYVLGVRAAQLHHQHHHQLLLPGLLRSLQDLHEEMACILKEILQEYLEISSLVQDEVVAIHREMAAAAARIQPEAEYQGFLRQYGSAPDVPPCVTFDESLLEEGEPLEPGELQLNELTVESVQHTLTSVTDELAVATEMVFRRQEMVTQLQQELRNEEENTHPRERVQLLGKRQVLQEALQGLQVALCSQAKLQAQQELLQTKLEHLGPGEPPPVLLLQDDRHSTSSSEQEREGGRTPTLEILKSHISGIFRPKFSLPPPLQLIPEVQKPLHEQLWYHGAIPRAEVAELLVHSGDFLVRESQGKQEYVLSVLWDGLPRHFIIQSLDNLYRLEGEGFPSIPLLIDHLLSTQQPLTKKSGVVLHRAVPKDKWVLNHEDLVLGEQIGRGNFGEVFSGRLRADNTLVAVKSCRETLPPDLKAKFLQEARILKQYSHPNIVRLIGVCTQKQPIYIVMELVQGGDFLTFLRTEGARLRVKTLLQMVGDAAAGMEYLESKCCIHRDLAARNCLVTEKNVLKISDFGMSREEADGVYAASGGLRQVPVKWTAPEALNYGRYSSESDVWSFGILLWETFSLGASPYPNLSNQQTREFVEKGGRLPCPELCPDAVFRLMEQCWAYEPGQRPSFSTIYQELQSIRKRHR

Jak2 = Jak2 (UniProt O60674); experiment: as above
Jak2, sequence (O60674 whole entry, looked up): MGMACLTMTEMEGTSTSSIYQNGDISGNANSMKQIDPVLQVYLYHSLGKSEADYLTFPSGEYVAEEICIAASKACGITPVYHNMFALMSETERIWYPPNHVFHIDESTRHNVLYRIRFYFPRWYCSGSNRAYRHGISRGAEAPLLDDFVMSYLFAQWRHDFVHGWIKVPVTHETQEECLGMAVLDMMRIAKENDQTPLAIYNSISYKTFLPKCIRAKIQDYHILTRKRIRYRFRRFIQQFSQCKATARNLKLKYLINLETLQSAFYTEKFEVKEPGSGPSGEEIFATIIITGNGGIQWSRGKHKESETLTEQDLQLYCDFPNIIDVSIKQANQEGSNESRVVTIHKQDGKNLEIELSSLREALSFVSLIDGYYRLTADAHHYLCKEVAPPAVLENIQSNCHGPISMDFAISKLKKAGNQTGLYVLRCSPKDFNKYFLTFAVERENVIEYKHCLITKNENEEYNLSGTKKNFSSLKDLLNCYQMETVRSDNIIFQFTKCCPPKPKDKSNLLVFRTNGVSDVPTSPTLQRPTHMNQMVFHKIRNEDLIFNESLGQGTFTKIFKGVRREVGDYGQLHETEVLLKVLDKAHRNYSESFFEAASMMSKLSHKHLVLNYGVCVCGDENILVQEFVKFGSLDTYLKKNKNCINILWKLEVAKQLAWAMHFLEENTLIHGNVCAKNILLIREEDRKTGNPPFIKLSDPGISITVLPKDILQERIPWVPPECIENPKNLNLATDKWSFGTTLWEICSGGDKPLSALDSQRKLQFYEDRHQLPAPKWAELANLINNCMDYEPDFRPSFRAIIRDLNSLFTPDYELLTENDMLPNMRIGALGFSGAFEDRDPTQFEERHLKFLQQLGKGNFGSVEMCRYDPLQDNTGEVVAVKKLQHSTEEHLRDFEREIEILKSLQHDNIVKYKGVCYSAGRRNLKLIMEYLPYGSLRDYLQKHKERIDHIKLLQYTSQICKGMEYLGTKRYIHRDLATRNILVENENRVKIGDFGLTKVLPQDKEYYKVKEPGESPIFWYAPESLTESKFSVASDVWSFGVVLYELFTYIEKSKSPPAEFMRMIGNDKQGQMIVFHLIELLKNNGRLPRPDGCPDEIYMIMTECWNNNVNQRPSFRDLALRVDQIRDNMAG

Hck = Hck (UniProt P08631); experiment: as above
c-Src = experiment: as above
FGFR3 = FGFR3 (UniProt P22607); experiment: as above
FGFR3, sequence (P22607 whole entry, looked up): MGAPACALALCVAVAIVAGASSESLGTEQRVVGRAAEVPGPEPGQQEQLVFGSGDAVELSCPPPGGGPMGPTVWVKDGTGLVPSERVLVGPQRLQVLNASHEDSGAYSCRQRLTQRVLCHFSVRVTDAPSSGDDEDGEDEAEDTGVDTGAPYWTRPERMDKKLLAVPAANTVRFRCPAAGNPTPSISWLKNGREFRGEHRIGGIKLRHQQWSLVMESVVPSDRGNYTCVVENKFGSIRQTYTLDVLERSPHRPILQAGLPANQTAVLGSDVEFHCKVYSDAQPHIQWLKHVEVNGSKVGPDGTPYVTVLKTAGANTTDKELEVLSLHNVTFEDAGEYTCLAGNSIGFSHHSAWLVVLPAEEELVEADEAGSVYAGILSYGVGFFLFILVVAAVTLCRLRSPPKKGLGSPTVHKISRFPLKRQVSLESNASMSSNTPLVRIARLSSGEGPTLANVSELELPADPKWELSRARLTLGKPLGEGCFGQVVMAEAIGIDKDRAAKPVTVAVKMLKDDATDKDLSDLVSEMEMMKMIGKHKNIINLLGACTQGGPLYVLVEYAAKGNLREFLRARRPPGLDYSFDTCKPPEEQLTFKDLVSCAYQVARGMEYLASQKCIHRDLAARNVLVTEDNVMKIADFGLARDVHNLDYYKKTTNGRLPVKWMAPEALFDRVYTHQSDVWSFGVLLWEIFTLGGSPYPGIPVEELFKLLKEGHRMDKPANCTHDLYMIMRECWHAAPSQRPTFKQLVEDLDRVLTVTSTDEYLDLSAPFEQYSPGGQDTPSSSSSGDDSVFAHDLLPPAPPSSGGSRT

EPHB2 = EPHB2 (UniProt P29323); experiment: as above
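Wherever SH2 binding enrichment of the phosphorylated peptide, bacterial display is given: peptide library displayed on the E. coli surface as eCPX fusions, selected cells deep-sequenced, score is each peptide's frequency after selection divided by its frequency in the input.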
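Wherever phosphorylation enrichment, bacterial display is given: 11-residue human phosphosite peptides and single-mutation variants displayed on the E. coli surface, counted by deep sequencing, each peptide's frequency after selection divided by its frequency in the unselected input library; frequency after pTyr selection over input frequency; kinase dosed for 20-30% of maximal phosphorylation in three min.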

| SH2 binding enrichment (SHP2-C SH2) | SH2 binding enrichment (c-Src SH2) | SH2 binding enrichment (Grb2 SH2) | Sequence | phosphorylation enrichment (EPHB1) | phosphorylation enrichment (c-Abl (mouse)) | phosphorylation enrichment (Fer (mouse)) | phosphorylation enrichment (FGFR1) | phosphorylation enrichment (Fyn) | phosphorylation enrichment (AncSZ) | phosphorylation enrichment (MERTK) | phosphorylation enrichment (Fes) | phosphorylation enrichment (Jak2) | phosphorylation enrichment (Hck) | phosphorylation enrichment (c-Src) | phosphorylation enrichment (FGFR3) | phosphorylation enrichment (EPHB2) |
| --- | --- | --- | --- | --- | --- | --- | --- | --- | --- | --- | --- | --- | --- | --- | --- | --- |
| 0.35 | 0.697 | 0.713 | LPKVSCVKAID [GLRA1_Y307_Y307C] | 0.794 | 0.803 | 0.577 | 0.734 | 0.655 | 1.19 | 0.501 | 1.38 | 0.945 | 0.695 | 0.386 | 1.14 | 0.711 |
| 0.654 | 0.333 | 0.61 | TENAGYFFQVS | 0.482 | 0.89 | 0.414 | 0.714 | 0.435 | 1.11 | 0.397 | 1.08 | 1.21 | 0.442 | 0.384 | 0.774 | 0.546 |
| 0.76 | 0.572 | 0.932 | VRLTEYPCAGL | 0.456 | 0.527 | 0.381 | 0.396 | 0.358 | 0.638 | 0.367 | 0.781 | 0.673 | 0.428 | 0.398 | 0.523 | 0.457 |
| 0.406 | 0.303 | 0.229 | RLRKFHLGKFL [KLB_Y906_Y906H_YF] | 1.17 | 0.948 | 0.415 | 0.417 | 0.574 | 1.06 | 0.969 | 1.13 | 0.698 | 0.63 | 0.792 | 0.651 | 1.16 |
| 0.731 | 0.503 | 0.775 | EALDFYGELRT [PTEN_Y155_V158L] | 0.771 | 0.843 | 0.779 | 0.571 | 0.933 | 1.27 | 0.453 | 1.48 | 1.33 | 1.25 | 0.805 | 0.964 | 0.764 |
| 0.92 | 0.555 | 1.23 | EWQQIYTFDSG [JUP_Y20_T19I_YF] | 1.21 | 1.06 | 4.03 | 7.82 | 11.9 | 1.78 | 9.37 | 1.58 | 1.21 | 7.35 | 9.4 | 5.97 | 0.906 |
| 1.1 | 1.07 | 1.11 | YFWDGYMPRQY [GSS_Y270_R267W] | 0.68 | 0.565 | 0.576 | 10.8 | 0.547 | 1.01 | 3.96 | 1.18 | 5.42 | 0.783 | 0.772 | 9.39 | 0.521 |
| 0.965 | 0.529 | 0.718 | STGWSYAGVAV [KLHL3_Y577_R575W] | 0.515 | 0.463 | 0.616 | 0.484 | 0.416 | 0.929 | 0.352 | 0.776 | 0.69 | 0.581 | 0.462 | 0.549 | 0.454 |

Second part, the sequence before the results:

| Sequence | SH2 binding enrichment (SHP2-C SH2) | SH2 binding enrichment (c-Src SH2) | SH2 binding enrichment (Grb2 SH2) | phosphorylation enrichment (EPHB1) | phosphorylation enrichment (c-Abl (mouse)) | phosphorylation enrichment (Fer (mouse)) | phosphorylation enrichment (FGFR1) | phosphorylation enrichment (Fyn) | phosphorylation enrichment (AncSZ) | phosphorylation enrichment (MERTK) | phosphorylation enrichment (Fes) | phosphorylation enrichment (Jak2) | phosphorylation enrichment (Hck) | phosphorylation enrichment (c-Src) | phosphorylation enrichment (FGFR3) | phosphorylation enrichment (EPHB2) |
| --- | --- | --- | --- | --- | --- | --- | --- | --- | --- | --- | --- | --- | --- | --- | --- | --- |
| KKHIPYSEHKS [CSNK1G2_Y206_R207S] | 1.41 | 1.51 | 1.62 | 0.488 | 1.53 | 0.72 | 0.483 | 0.374 | 0.718 | 0.606 | 1.52 | 1.37 | 0.565 | 0.781 | 1.1 | 0.644 |
| DSASAYADEVK [ETNPPL_Y189] | 0.661 | 0.593 | 0.724 | 0.536 | 0.685 | 0.53 | 0.655 | 0.549 | 1.28 | 0.601 | 1.04 | 1.15 | 0.653 | 0.638 | 0.685 | 0.544 |
| SVVVPYEPPEV [TP53_Y220] | 1.11 | 0.888 | 1.01 | 0.532 | 0.798 | 0.556 | 0.548 | 0.502 | 1.25 | 0.531 | 1.16 | 1 | 0.55 | 0.459 | 0.748 | 0.645 |
| EFLRNYFTDKA [DSG2_Y775] | 1.03 | 0.444 | 1.03 | 0.572 | 0.764 | 0.573 | 0.569 | 0.48 | 1.09 | 0.567 | 1.08 | 0.962 | 0.414 | 0.528 | 0.622 | 0.472 |
| NLNGKYYKPRA [ANGPTL3_Y417_N418Y] | 0.974 | 0.861 | 1.3 | 0.404 | 0.61 | 0.354 | 0.408 | 0.241 | 0.474 | 0.304 | 0.57 | 0.617 | 0.312 | 0.406 | 0.445 | 0.324 |
| PSRKDYETFQS [CTNND2_Y1154_P1159S_YF] | 0.55 | 0.439 | 0.76 | 0.91 | 1.94 | 0.518 | 0.769 | 0.845 | 0.853 | 0.614 | 0.977 | 0.553 | 0.54 | 0.729 | 0.751 | 0.792 |
| QNWELYSEGLG [CNKSR1_Y665_R662W] | 0.771 | 0.628 | 0.958 | 5.52 | 0.751 | 0.869 | 0.744 | 3.04 | 1.37 | 2.26 | 1.07 | 1.13 | 4.32 | 2.08 | 0.746 | 5.04 |
| GFPVHYTDMSN [DNMT3B_Y815_V818M] | 6.03 | 3.25 | 0.787 | 0.388 | 0.568 | 0.419 | 0.546 | 0.536 | 0.947 | 0.545 | 0.699 | 0.667 | 0.417 | 0.416 | 0.501 | 0.439 |
| ETRWKYHFEVV [GCNT3_Y267] | 0.678 | 0.437 | 0.712 | 0.701 | 0.979 | 0.57 | 0.505 | 0.439 | 1.42 | 0.418 | 1.52 | 1.35 | 0.563 | 0.364 | 1.04 | 0.706 |
